Assay in all cases: SPR
In experiment [1] the target is recombinant APOL1 G2 protein (His-tag fused, risk variant) (human) (UniProt O14791).
The target of experiment [2] is recombinant APOL1 G0 protein (His-tag fused, reference allele) (human) (UniProt O14791).
In experiment [3] the target is recombinant APOL1 G1 protein (His-tag fused, risk variant) (human) (UniProt O14791).
The target in experiment [4] is recombinant APOL1 G2 protein (His-tag fused, risk variant) (human) (UniProt O14791). The source holds these as a separate data set.
Experiment [5] concerns the target recombinant APOL1 G1 protein (His-tag fused, risk variant) (human) (UniProt O14791). The source holds these as a separate data set.

Like-named read-outs stand apart in the source and are kept apart here.

What is called Kd is the constant that tells how readily two partners part at equilibrium. For “human recombinant protein integrin αvβ3 (from UniProt P06756 31-1048; P05106 27-718) (complex)”, the Kd is 10.7 µM in experiment [1]; 0.574 µM in experiment [2]; 0.528 µM in experiment [3]; 0.007 µM in experiment [4]; 0.007 µM in experiment [5].
With “human integrin α3β1 (from UniProt P26006 33-1051; P05556 21-728) (complex)”, the Kd in experiment [1] and in experiment [3] was > 1000 µM each time.
Take “human suPAR (soluble urokinase plasminogen activator receptor), recombinant (from UniProt Q03405 23-305)”: the figures for the KD for suPAR in the presence of αvβ3 integrin (5 nM) with Mn2+ in experiment [1] and in experiment [3] were 0.024 µM and 0.277 µM, respectively.

The values are drawn from article PMC6019326.
